Source: patent publication US20020177126A1

Substrate: F protein of wild type RSV A/Long (respiratory syncytial virus, strain A/Long) (UniProt P12568)
Assay: cell-based or functional assay

F protein of wild type RSV A/Long (respiratory syncytial virus, strain A/Long), sequence (P12568 26-574): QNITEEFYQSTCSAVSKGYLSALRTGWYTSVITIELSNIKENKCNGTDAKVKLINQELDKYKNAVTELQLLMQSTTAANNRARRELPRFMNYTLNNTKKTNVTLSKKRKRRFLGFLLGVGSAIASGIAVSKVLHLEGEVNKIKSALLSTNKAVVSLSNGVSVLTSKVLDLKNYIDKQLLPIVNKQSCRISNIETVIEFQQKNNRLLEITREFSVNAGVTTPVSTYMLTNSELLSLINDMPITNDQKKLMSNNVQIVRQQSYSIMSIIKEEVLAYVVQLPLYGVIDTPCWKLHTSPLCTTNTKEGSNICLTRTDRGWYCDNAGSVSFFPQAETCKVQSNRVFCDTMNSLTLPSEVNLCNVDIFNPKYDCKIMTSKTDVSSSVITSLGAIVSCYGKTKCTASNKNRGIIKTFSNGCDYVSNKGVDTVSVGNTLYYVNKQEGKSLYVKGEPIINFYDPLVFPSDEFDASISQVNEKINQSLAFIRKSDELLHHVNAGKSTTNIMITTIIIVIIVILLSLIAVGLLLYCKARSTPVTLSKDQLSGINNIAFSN

Binder | Fold Difference (Control IC50) [fold] | Fold Difference (Curve IC50) [fold] | Mean IC50 (Control), RSV microneutralization [µg/mL] | Mean IC50 (Curve), RSV microneutralization [µg/mL]
A17d4 (Fab) (Fab, V domains shown) VH: QVTLRESGPALVKPTQTLTLTCTFSGFSLSTAGMSVGWIRQPPGKALEWLADIWWDGKKSYNPSLKDRLTISKDTSKNQVVLKVTNMDPADTATYYCARDMIFNFYFDVWGQGTTVTVSS VL: DIQMTQSPSTLSASVGDRVTITCLPSSRVGYMHWYQQKPGKAPKLLIYDTMYQASGVPSRFSGSGSGTEFTLTISSLQPDDFATYYCFQFSGYPFTFGGGTKLEIK | 31 | 25 | 0.0171 | 0.0179
A8c7 (Fab) (Fab, V domains shown) VH: QVTLRESGPALVKPTQTLTLTCTFSGFSLSTAGMSVGWIRQPPGKALEWLADIWWDDKKSYNPSLKDRLTISKDTSKNQVVLKVTNMDPADTATYYCARDMIFNWYFDVWGQGTTVTVSS VL: DIQMTQSPSTLSASVGDRVTITCSASSRVGYMHWYQQKPGKAPKLLIYDTRYQSSGVPSRFSGSGSGTEFTLTISSLQPDDFATYYCFQGSGYPFTFGGGTKLEIK | 34 | 3 | 0.157 | 0.177
A1h5 (Fab) (Fab, V domains shown) VH: QVTLRESGPALVKPTQTLTLTCTFSGFSLSTPGMSVGWIRQPPGKALEWLADIWWDGKKHYNPSLKDRLTISKDTSKNQVVLKVTNMDPADTATYYCARDMIFNWYFDVWGQGTTVTVSS VL: DIQMTQSPSTLSASVGDRVTITCSLSSSVGYMHWYQQKPGKAPKLLIYDTFFHRSGVPSRFSGSGSGTEFTLTISSLQPDDFATYYCFQGSGYPFTFGGGTKLEIK | 3 | 2 | 0.176 | 0.194
A4B4 (Fab) (Fab, V domains shown) VH: QVTLRESGPALVKPTQTLTLTCTFSGFSLSTAGMSVGWIRQPPGKALEWLADIWWDDKKHYNPSLKDRLTISKDTSKNQVVLKVTNMDPADTATYYCARDMIFNFYFDVWGQGTTVTVSS VL: DIQMTQSPSTLSASVGDRVTITCSASSRVGYMHWYQQKPGKAPKLLIYDTFFLDSGVPSRFSGSGSGTEFTLTISSLQPDDFATYYCFQGSGYPFTFGGGTKLEIK | 13 | 11 | 0.0411 | 0.0414
